# According to patent publication US20180194839A1 (Novartis, published 2018):
# T1: recombinant human IL-17A (SEQ ID NO: 76) (human, UniProt Q16552 24-155, limits assumed)
# T1 sequence: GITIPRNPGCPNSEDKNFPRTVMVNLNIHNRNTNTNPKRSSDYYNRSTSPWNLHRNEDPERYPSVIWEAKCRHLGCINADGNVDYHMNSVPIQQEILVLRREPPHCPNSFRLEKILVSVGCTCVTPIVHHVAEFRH
# T2: recombinant human IL-4 (R&D Systems Cat#204-IL/CF) (human, UniProt P05112 25-153)
# T2 construct: also called huIL-4
# T2 sequence (looked up): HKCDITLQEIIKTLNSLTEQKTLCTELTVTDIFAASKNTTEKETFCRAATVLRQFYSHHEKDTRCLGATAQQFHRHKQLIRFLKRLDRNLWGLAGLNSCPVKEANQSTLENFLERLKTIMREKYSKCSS
# T3: recombinant human IL-23 (R&D Systems Cat#1290-IL-010/CF) (human, UniProt Q9NPF7 20-189; P29460 23-328)
# T3 construct: also called huIL-23
# T3 sequence (looked up) 1: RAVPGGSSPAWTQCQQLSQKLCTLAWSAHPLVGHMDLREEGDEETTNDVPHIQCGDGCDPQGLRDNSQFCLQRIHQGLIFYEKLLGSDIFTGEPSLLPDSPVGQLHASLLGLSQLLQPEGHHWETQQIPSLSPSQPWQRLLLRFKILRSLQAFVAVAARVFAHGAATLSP
# T3 sequence (looked up) 2: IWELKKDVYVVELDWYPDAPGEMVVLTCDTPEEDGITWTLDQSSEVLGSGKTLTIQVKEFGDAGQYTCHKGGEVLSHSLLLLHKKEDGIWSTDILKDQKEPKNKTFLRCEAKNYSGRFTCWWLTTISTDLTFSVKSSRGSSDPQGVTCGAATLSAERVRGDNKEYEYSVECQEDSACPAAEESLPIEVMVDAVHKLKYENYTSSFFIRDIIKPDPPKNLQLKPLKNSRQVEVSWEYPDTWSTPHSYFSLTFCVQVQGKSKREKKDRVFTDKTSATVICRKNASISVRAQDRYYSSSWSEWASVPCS
# T4: recombinant mouse IL-17A (SEQ ID NO: 83) (mouse, UniProt Q62386 26-158)
# T4 construct: also called mIL-17A; rmIL-17A
# T4 sequence: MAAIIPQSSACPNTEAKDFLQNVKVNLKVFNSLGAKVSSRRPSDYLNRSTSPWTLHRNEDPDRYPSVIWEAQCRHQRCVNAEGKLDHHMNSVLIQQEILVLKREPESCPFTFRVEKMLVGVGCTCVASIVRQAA
# T5: recombinant mouse IL-17F (R&D Systems Cat#2057-IL/CF) (mouse, UniProt Q7TNI7 29-161)
# T5 construct: also called mIL-17F
# T5 sequence (looked up): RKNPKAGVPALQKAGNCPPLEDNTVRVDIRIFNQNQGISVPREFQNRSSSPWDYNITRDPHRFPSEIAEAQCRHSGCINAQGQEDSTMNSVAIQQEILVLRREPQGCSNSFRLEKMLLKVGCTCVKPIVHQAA
# T6: recombinant mouse IL-1β (R&D Systems Cat#401-ML) (mouse, UniProt P10749 118-269)
# T6 construct: also called mIL-1β
# T6 sequence (looked up): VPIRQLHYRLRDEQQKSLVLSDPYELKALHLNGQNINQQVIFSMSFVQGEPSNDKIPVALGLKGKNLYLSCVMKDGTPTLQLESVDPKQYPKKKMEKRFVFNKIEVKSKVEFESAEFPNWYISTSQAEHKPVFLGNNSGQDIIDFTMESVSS
# T7: recombinant mouse IL-12 (R&D Systems Cat#419-ML-010/CF) (mouse, UniProt P43431 23-215; P43432 23-335)
# T7 construct: coated at 0.5 µg/ml; also called mIL-12
# T7 sequence (looked up) 1: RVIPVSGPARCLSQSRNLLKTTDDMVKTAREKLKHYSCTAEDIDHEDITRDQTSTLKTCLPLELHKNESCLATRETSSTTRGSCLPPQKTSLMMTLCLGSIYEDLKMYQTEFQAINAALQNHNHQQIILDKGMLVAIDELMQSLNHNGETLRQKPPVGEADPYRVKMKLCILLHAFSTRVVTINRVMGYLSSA
# T7 sequence (looked up) 2: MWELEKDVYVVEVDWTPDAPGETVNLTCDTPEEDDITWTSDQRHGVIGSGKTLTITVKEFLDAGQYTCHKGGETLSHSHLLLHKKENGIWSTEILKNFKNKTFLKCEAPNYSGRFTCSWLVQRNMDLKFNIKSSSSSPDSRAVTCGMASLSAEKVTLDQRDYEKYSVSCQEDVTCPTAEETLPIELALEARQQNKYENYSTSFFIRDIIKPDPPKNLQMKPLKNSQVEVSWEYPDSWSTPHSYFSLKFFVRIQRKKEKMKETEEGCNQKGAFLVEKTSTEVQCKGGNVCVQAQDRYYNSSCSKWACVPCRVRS
# T8: recombinant mouse IL-18 (MBL Cat#B004-5) (mouse, UniProt P70380 36-192)
# T8 construct: also called mIL-18
# T8 sequence (looked up): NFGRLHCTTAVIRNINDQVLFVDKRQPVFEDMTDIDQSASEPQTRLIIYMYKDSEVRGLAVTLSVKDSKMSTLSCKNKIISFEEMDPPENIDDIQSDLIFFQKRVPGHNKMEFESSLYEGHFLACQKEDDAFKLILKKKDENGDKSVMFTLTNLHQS
# T9: recombinant mouse TNFα (R&D Systems Cat#410-MT) (mouse, UniProt P06804 80-235)
# T9 construct: coated at 0.5 µg/ml; also called mTNFα
# T9 sequence (looked up): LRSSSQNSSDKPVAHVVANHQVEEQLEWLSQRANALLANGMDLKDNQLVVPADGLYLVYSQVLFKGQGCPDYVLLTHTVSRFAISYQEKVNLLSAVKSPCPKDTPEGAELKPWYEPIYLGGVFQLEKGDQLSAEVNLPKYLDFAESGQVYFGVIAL
# Legend:
# [1] = target: T1, recombinant human IL-17A (SEQ ID NO: 76); assay: cell-based or functional assay
# [2] = target: T2, recombinant human IL-4 (R&D Systems …); assay: ELISA, coated cytokine, Ab 10 µg/ml
# Experimental: (§1) The antibodies of the disclosure were added at 10 μg/ml (100 μl/well) for 3 h at room temperature. […] They were added at 1 or 5 μg/ml, in PBS, 0.02% NaN₃ for 3 h at RT.
# (§2) Plates were then washed 4 times with PBS/0.05% Tween 20/0.02% NaN₃. Then, an alkaline phosphatase-conjugated goat anti-human IgG antibody (Sigma Cat# A9544) was added to the wells with human antibodies at a dilution of 1/20000 (100 μl/well). An alkaline phosphatase-conjugated goat anti-mouse IgG antibody (Sigma Cat# A1047) was added to the wells with mouse antibodies at a dilution of 1/10000 (100 μl/well). An alkaline phosphatase-conjugated rabbit anti-goat IgG antibody (Sigma Cat# A7650) was added to the wells with goat antibodies at a dilution of 1/1000 (100 μl/well) and an alkaline phosphatase-conjugated rabbit anti rat-IgG antibody (Sigma Cat# A6066) was added to the wells with rat antibodies at a dilution of 1/20000 (100 μl/well).
# [3] = target: T3, recombinant human IL-23 (R&D Systems …); assay: ELISA, coated cytokine, Ab 10 µg/ml
# Experimental: as §1, §2
# [4] = target: T4, recombinant mouse IL-17A (SEQ ID NO: 83); assay: ELISA, coated cytokine, Ab 10 µg/ml
# Experimental: as §1, §2
# [5] = target: T5, recombinant mouse IL-17F (R&D Systems …); assay: ELISA, coated cytokine, Ab 10 µg/ml
# Experimental: as §1, §2
# [6] = target: T6, recombinant mouse IL-1β (R&D Systems …); assay: ELISA, coated cytokine, Ab 10 µg/ml
# Experimental: as §1, §2
# [7] = target: T7, recombinant mouse IL-12 (R&D Systems …); assay: ELISA, coated cytokine, Ab 10 µg/ml
# Experimental: as §1, §2
# [8] = target: T8, recombinant mouse IL-18 (MBL Cat#B004-5); assay: ELISA, coated cytokine, Ab 10 µg/ml
# Experimental: as §1, §2
# [9] = target: T9, recombinant mouse TNFα (R&D Systems …); assay: ELISA, coated cytokine, Ab 10 µg/ml
# Experimental: as §1, §2
Binder,"IC50, huGROα secretion by BJ cells; stimulus rhuIL-17A (0.5 nM) [1] [nM]",O.D. [2] [O.D.],O.D. [3] [O.D.],O.D. [4] [O.D.],O.D. [5] [O.D.],O.D. [6] [O.D.],O.D. [7] [O.D.],O.D. [8] [O.D.],O.D. [9] [O.D.]
"XAB4 (antibody, human IgG1, kappa, V domains shown, also called MB435 N56Q) VH: EVQLVESGGDLVQPGGSLRLSCAASGFTFSSYWMSWVRQAPGKGLEWVANIKQDGSEKYYVDSVKGRFTISRDNAKNSLYLQMNSLRAEDTAVYYCARDRGSLYYWGQGTLVTVSS VL: AIQLTQSPSSLSASVGDRVTITCRPSQGINWELAWYQQKPGKAPKLLIYDASSLEQGVPSRFSGSGSGTDFTLTISSLQPEDFATYYCQQFNSYPLTFGGGTKVEIKR",0.44,0.047,-0.022,3.29,0.034,0.022,0.035,0.054,0.065
"XAB1 (antibody, human IgG1, kappa, V domains shown, human IgG1/kappa monoclonal antibody; also called parental XAB1; XAB1 IgG) VH: EVQLVESGGDLVQPGGSLRLSCAASGFTFSSYWMSWVRQAPGKGLEWVANIKQDGSEKYYVDSVKGRFTISRDNAKNSLYLQMNSLRAEDTAVYYCARDRGSLYYWGQGTLVTVSS VL: AIQLTQSPSSLSASVGDRVTITCRPSQGIISALAWYQQKPGKAPKLLIYDASSLENGVPSRFSGSGSGTDFTLTISSLQPEDFATYYCQQFNSYPLTFGGGTKVEIKR",1.39,0.057,0.085,2.97,-0.058,0.007,-0.005,0.022,0.025
